Test results reported in patent US12679878B2, “CRF2 receptor agonists and their use in therapy” (SANOFI, priority 2020, dated 2026).
Each block holds one binder with its values, some of them ahead of it. Starred links: 1 amine or outer side, 2 acyl side, 3 side chain; linkers in the order of their positions; H or OH if unused. Non-standard residues stand in square brackets, D forms with d. Groups on a side chain read outwards from the residue. No end group written: not given here. *: point of attachment. C18 diacid = O=C(O)CCCCCCCCCCCCCCCCC(=O)*; γGlu = O=C(O)[C@H](CCC(=O)[*:2])N[*:1]; Palmitoyl = CCCCCCCCCCCCCCCC(=O)*; AEEA = NCCOCCOCC(=O)O

Molecular target: human corticotropin-releasing factor 2α (CRF2 α receptor) (human), Q13324
Test: cell-based or functional assay

Sequence of human corticotropin-releasing factor 2α (CRF2 α receptor) (human), Q13324 (Q13324 20-411): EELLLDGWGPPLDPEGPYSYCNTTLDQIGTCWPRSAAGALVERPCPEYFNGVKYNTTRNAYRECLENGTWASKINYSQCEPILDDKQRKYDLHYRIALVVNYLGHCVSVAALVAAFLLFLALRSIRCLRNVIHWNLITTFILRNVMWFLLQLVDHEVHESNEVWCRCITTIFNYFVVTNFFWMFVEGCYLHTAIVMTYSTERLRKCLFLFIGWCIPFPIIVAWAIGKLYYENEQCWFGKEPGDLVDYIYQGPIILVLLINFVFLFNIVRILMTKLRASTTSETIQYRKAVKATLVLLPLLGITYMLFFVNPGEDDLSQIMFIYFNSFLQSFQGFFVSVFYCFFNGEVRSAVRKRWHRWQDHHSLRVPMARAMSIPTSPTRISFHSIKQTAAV

EC50 [nM], 0% HSA: 6.88 nM
B1: SEQ ID NO: 34 (peptide)
peptide: FTLSLDVPTKIK([AEEA-AEEA-γGlu-C18 diacid])QKLLKQEKQKKQRQKAKTNKQILEQV-NH2
modifications: N-terminus assumed
SMILES: CC[C@H](C)[C@H](NC(=O)[C@H](CCC(N)=O)NC(=O)[C@H](CCCCN)NC(=O)[C@H](CC(N)=O)NC(=O)[C@@H](NC(=O)[C@H](CCCCN)NC(=O)[C@H](C)NC(=O)[C@H](CCCCN)NC(=O)[C@H](CCC(N)=O)NC(=O)[C@H](CCCNC(=N)N)NC(=O)[C@H](CCC(N)=O)NC(=O)[C@H](CCCCN)NC(=O)[C@H](CCCCN)NC(=O)[C@H](CCC(N)=O)NC(=O)[C@H](CCCCN)NC(=O)[C@H](CCC(=O)O)NC(=O)[C@H](CCC(N)=O)NC(=O)[C@H](CCCCN)NC(=O)[C@H](CC(C)C)NC(=O)[C@H](CC(C)C)NC(=O)[C@H](CCCCN)NC(=O)[C@H](CCC(N)=O)NC(=O)[C@H](CCCCNC(=O)COCCOCCNC(=O)COCCOCCNC(=O)CC[C@H](NC(=O)CCCCCCCCCCCCCCCCC(=O)O)C(=O)O)NC(=O)[C@@H](NC(=O)[C@H](CCCCN)NC(=O)[C@@H](NC(=O)[C@@H]1CCCN1C(=O)[C@@H](NC(=O)[C@H](CC(=O)O)NC(=O)[C@H](CC(C)C)NC(=O)[C@H](CO)NC(=O)[C@H](CC(C)C)NC(=O)[C@@H](NC(=O)[C@@H](N)Cc1ccccc1)[C@@H](C)O)C(C)C)[C@@H](C)O)[C@@H](C)CC)[C@@H](C)O)C(=O)N[C@@H](CC(C)C)C(=O)N[C@@H](CCC(=O)O)C(=O)N[C@@H](CCC(N)=O)C(=O)N[C@H](C(N)=O)C(C)C

EC50 [nM], 0% HSA: 0.2 nM
B2: SEQ ID NO: 33 (peptide)
peptide: IVLSLD[dV]PTKLK([γGlu-Palmitoyl])QKLLKQERQRKEREQAEKNTRILERV-NH2
modifications: N-terminus assumed
SMILES: CCCCCCCCCCCCCCCC(=O)N[C@@H](CCC(=O)NCCCC[C@H](NC(=O)[C@H](CC(C)C)NC(=O)[C@H](CCCCN)NC(=O)[C@@H](NC(=O)[C@@H]1CCCN1C(=O)[C@H](NC(=O)[C@H](CC(=O)O)NC(=O)[C@H](CC(C)C)NC(=O)[C@H](CO)NC(=O)[C@H](CC(C)C)NC(=O)[C@@H](NC(=O)[C@@H](N)[C@@H](C)CC)C(C)C)C(C)C)[C@@H](C)O)C(=O)N[C@@H](CCC(N)=O)C(=O)N[C@@H](CCCCN)C(=O)N[C@@H](CC(C)C)C(=O)N[C@@H](CC(C)C)C(=O)N[C@@H](CCCCN)C(=O)N[C@@H](CCC(N)=O)C(=O)N[C@@H](CCC(=O)O)C(=O)N[C@@H](CCCNC(=N)N)C(=O)N[C@@H](CCC(N)=O)C(=O)N[C@@H](CCCNC(=N)N)C(=O)N[C@@H](CCCCN)C(=O)N[C@@H](CCC(=O)O)C(=O)N[C@@H](CCCNC(=N)N)C(=O)N[C@@H](CCC(=O)O)C(=O)N[C@@H](CCC(N)=O)C(=O)N[C@@H](C)C(=O)N[C@@H](CCC(=O)O)C(=O)N[C@@H](CCCCN)C(=O)N[C@@H](CC(N)=O)C(=O)N[C@H](C(=O)N[C@@H](CCCNC(=N)N)C(=O)N[C@H](C(=O)N[C@@H](CC(C)C)C(=O)N[C@@H](CCC(=O)O)C(=O)N[C@@H](CCCNC(=N)N)C(=O)N[C@H](C(N)=O)C(C)C)[C@@H](C)CC)[C@@H](C)O)C(=O)O

EC50 [nM], 0% HSA: 0.01 nM
B3: SEQ ID NO: 1 (peptide)
peptide: IVLSLDVPIGLK([γGlu-Palmitoyl])QILLEQEKQEKEKQQAETNAQILAQV-NH2
modifications: N-terminus assumed
SMILES: CCCCCCCCCCCCCCCC(=O)N[C@@H](CCC(=O)NCCCC[C@H](NC(=O)[C@H](CC(C)C)NC(=O)CNC(=O)[C@@H](NC(=O)[C@@H]1CCCN1C(=O)[C@@H](NC(=O)[C@H](CC(=O)O)NC(=O)[C@H](CC(C)C)NC(=O)[C@H](CO)NC(=O)[C@H](CC(C)C)NC(=O)[C@@H](NC(=O)[C@@H](N)[C@@H](C)CC)C(C)C)C(C)C)[C@@H](C)CC)C(=O)N[C@@H](CCC(N)=O)C(=O)N[C@H](C(=O)N[C@@H](CC(C)C)C(=O)N[C@@H](CC(C)C)C(=O)N[C@@H](CCC(=O)O)C(=O)N[C@@H](CCC(N)=O)C(=O)N[C@@H](CCC(=O)O)C(=O)N[C@@H](CCCCN)C(=O)N[C@@H](CCC(N)=O)C(=O)N[C@@H](CCC(=O)O)C(=O)N[C@@H](CCCCN)C(=O)N[C@@H](CCC(=O)O)C(=O)N[C@@H](CCCCN)C(=O)N[C@@H](CCC(N)=O)C(=O)N[C@@H](CCC(N)=O)C(=O)N[C@@H](C)C(=O)N[C@@H](CCC(=O)O)C(=O)N[C@H](C(=O)N[C@@H](CC(N)=O)C(=O)N[C@@H](C)C(=O)N[C@@H](CCC(N)=O)C(=O)N[C@H](C(=O)N[C@@H](CC(C)C)C(=O)N[C@@H](C)C(=O)N[C@@H](CCC(N)=O)C(=O)N[C@H](C(N)=O)C(C)C)[C@@H](C)CC)[C@@H](C)O)[C@@H](C)CC)C(=O)O

EC50 [nM], 0% HSA: 0.24 nM
EC50 [nM], 0.1% HSA: 3.82 nM
B4: SEQ ID NO: 35 (peptide)
peptide: IVLSLDVPIKLK([AEEA-AEEA-γGlu-C18 diacid])KILLEQEKQKKQREQAETNKQILAQV-NH2
modifications: N-terminus assumed
SMILES: CC[C@H](C)[C@H](N)C(=O)N[C@H](C(=O)N[C@@H](CC(C)C)C(=O)N[C@@H](CO)C(=O)N[C@@H](CC(C)C)C(=O)N[C@@H](CC(=O)O)C(=O)N[C@H](C(=O)N1CCC[C@H]1C(=O)N[C@H](C(=O)N[C@@H](CCCCN)C(=O)N[C@@H](CC(C)C)C(=O)N[C@@H](CCCCNC(=O)COCCOCCNC(=O)COCCOCCNC(=O)CC[C@H](NC(=O)CCCCCCCCCCCCCCCCC(=O)O)C(=O)O)C(=O)N[C@@H](CCCCN)C(=O)N[C@H](C(=O)N[C@@H](CC(C)C)C(=O)N[C@@H](CC(C)C)C(=O)N[C@@H](CCC(=O)O)C(=O)N[C@@H](CCC(N)=O)C(=O)N[C@@H](CCC(=O)O)C(=O)N[C@@H](CCCCN)C(=O)N[C@@H](CCC(N)=O)C(=O)N[C@@H](CCCCN)C(=O)N[C@@H](CCCCN)C(=O)N[C@@H](CCC(N)=O)C(=O)N[C@@H](CCCNC(=N)N)C(=O)N[C@@H](CCC(=O)O)C(=O)N[C@@H](CCC(N)=O)C(=O)N[C@@H](C)C(=O)N[C@@H](CCC(=O)O)C(=O)N[C@H](C(=O)N[C@@H](CC(N)=O)C(=O)N[C@@H](CCCCN)C(=O)N[C@@H](CCC(N)=O)C(=O)N[C@H](C(=O)N[C@@H](CC(C)C)C(=O)N[C@@H](C)C(=O)N[C@@H](CCC(N)=O)C(=O)N[C@H](C(N)=O)C(C)C)[C@@H](C)CC)[C@@H](C)O)[C@@H](C)CC)[C@@H](C)CC)C(C)C)C(C)C
